± gives the uncertainty stated by the source.
B1: Friend leukemia integration 1 transcription factor, residues 116 to 197; numbered along this chain, Q01543 (parent)
chain: NMTTNERRVIVPADPTLWTQEHVRQWLEWAIKEYSLMEIDTSFFQNMDGKELCKMNKEDFLRATTLYNTEVLLSHLSYLRES

Variants of: B1
Experiment: abundance fitness (aPCA) (normalised: wild type 0, dead -1); higher = more abundant; growth selection in yeast, the domain comes from the species named
Conditions: Homo sapiens

Variant	abundance fitness
NMTTNERRVIVPADPTLWTQEHVRFWLEWAIKEYSLMEIDTSFFQNMDGKELCKMNKEDFLRATTLYNTEVLLSHLSYLRES [Q25F]	-0.106 ± 0.19
NMTTNERRVIVPADPTLWTQEHVREWLEWAIKEYSLMEIDTSFFQNMDGKELCKMNKEDFLRATTLYNTEVLLSHLSYLRES [Q25E]	-0.334 ± 0.27
NMTTNERRVIVPADPTLWTQEHVRAWLEWAIKEYSLMEIDTSFFQNMDGKELCKMNKEDFLRATTLYNTEVLLSHLSYLRES [Q25A]	-0.066 ± 0.091
NMTTNERRVIVPADPTLWTQEHVRCWLEWAIKEYSLMEIDTSFFQNMDGKELCKMNKEDFLRATTLYNTEVLLSHLSYLRES [Q25C]	0.036 ± 0.17
NMTTNERRVIVPADPTLWTQVHVRQWLEWAIKEYSLMEIDTSFFQNMDGKELCKMNKEDFLRATTLYNTEVLLSHLSYLRES [E21V]	-0.111 ± 0.11
NMTTNERRVIVPADPTLWTQGHVRQWLEWAIKEYSLMEIDTSFFQNMDGKELCKMNKEDFLRATTLYNTEVLLSHLSYLRES [E21G]	-0.151 ± 0.094
NMTTNERRVIVPADPTLWTQTHVRQWLEWAIKEYSLMEIDTSFFQNMDGKELCKMNKEDFLRATTLYNTEVLLSHLSYLRES [E21T]	-0.131 ± 0.14
NMTTNERRVIVPADPTLWTQLHVRQWLEWAIKEYSLMEIDTSFFQNMDGKELCKMNKEDFLRATTLYNTEVLLSHLSYLRES [E21L]	-0.096 ± 0.073
NMTTNERRVIVPADPTLWTQIHVRQWLEWAIKEYSLMEIDTSFFQNMDGKELCKMNKEDFLRATTLYNTEVLLSHLSYLRES [E21I]	-0.474 ± 0.32
NMTTNERRVIVPADPTLWTQAHVRQWLEWAIKEYSLMEIDTSFFQNMDGKELCKMNKEDFLRATTLYNTEVLLSHLSYLRES [E21A]	0.017 ± 0.079
NMTTNERRVIVPADPTLWTQSHVRQWLEWAIKEYSLMEIDTSFFQNMDGKELCKMNKEDFLRATTLYNTEVLLSHLSYLRES [E21S]	-0.086 ± 0.095
NMTTNERRVIVPADPTLWTQQHVRQWLEWAIKEYSLMEIDTSFFQNMDGKELCKMNKEDFLRATTLYNTEVLLSHLSYLRES [E21Q]	0.066 ± 0.11
NMTTNERRVIVPADPTLWTQMHVRQWLEWAIKEYSLMEIDTSFFQNMDGKELCKMNKEDFLRATTLYNTEVLLSHLSYLRES [E21M]	-0.045 ± 0.1
NMTTNERRVIVPADPTLWTQNHVRQWLEWAIKEYSLMEIDTSFFQNMDGKELCKMNKEDFLRATTLYNTEVLLSHLSYLRES [E21N]	-0.091 ± 0.19
NMTTNERRVIVPADPTLWTQCHVRQWLEWAIKEYSLMEIDTSFFQNMDGKELCKMNKEDFLRATTLYNTEVLLSHLSYLRES [E21C]	-0.371 ± 0.22
NMTTNERRVIVPADPTLWTQKHVRQWLEWAIKEYSLMEIDTSFFQNMDGKELCKMNKEDFLRATTLYNTEVLLSHLSYLRES [E21K]	-0.243 ± 0.14
NMTTNERRVIVPADPTLWTQWHVRQWLEWAIKEYSLMEIDTSFFQNMDGKELCKMNKEDFLRATTLYNTEVLLSHLSYLRES [E21W]	-0.295 ± 0.1

Variant	abundance fitness
NMTTNERRVIVPADPTLWTQDHVRQWLEWAIKEYSLMEIDTSFFQNMDGKELCKMNKEDFLRATTLYNTEVLLSHLSYLRES [E21D]	-0.084 ± 0.24
NMTTNERRVIVPADPTLWTQENVRQWLEWAIKEYSLMEIDTSFFQNMDGKELCKMNKEDFLRATTLYNTEVLLSHLSYLRES [H22N]	-0.007 ± 0.14
NMTTNERRVIVPADPTLWTQEEVRQWLEWAIKEYSLMEIDTSFFQNMDGKELCKMNKEDFLRATTLYNTEVLLSHLSYLRES [H22E]	0.062 ± 0.14
NMTTNERRVIVPADPTLWTQECVRQWLEWAIKEYSLMEIDTSFFQNMDGKELCKMNKEDFLRATTLYNTEVLLSHLSYLRES [H22C]	-0.529 ± 0.33
NMTTNERRVIVPADPTLWTQEVVRQWLEWAIKEYSLMEIDTSFFQNMDGKELCKMNKEDFLRATTLYNTEVLLSHLSYLRES [H22V]	-0.17 ± 0.1
NMTTNERRVIVPADPTLWTQERVRQWLEWAIKEYSLMEIDTSFFQNMDGKELCKMNKEDFLRATTLYNTEVLLSHLSYLRES [H22R]	-0.266 ± 0.088
NMTTNERRVIVPADPTLWTQELVRQWLEWAIKEYSLMEIDTSFFQNMDGKELCKMNKEDFLRATTLYNTEVLLSHLSYLRES [H22L]	-0.386 ± 0.069
NMTTNERRVIVPADPTLWTQEQVRQWLEWAIKEYSLMEIDTSFFQNMDGKELCKMNKEDFLRATTLYNTEVLLSHLSYLRES [H22Q]	0.045 ± 0.088
NMTTNERRVIVPADPTLWTQEDVRQWLEWAIKEYSLMEIDTSFFQNMDGKELCKMNKEDFLRATTLYNTEVLLSHLSYLRES [H22D]	0.116 ± 0.13
NMTTNERRVIVPADPTLWTQEKVRQWLEWAIKEYSLMEIDTSFFQNMDGKELCKMNKEDFLRATTLYNTEVLLSHLSYLRES [H22K]	-0.199 ± 0.047
NMTTNERRVIVPADPTLWTQEPVRQWLEWAIKEYSLMEIDTSFFQNMDGKELCKMNKEDFLRATTLYNTEVLLSHLSYLRES [H22P]	-1.02 ± 0.34
NMTTNERRVIVPADPTLWTQEIVRQWLEWAIKEYSLMEIDTSFFQNMDGKELCKMNKEDFLRATTLYNTEVLLSHLSYLRES [H22I]	-0.201 ± 0.3
NMTTNERRVIVPADPTLWTQETVRQWLEWAIKEYSLMEIDTSFFQNMDGKELCKMNKEDFLRATTLYNTEVLLSHLSYLRES [H22T]	-0.274 ± 0.092
NMTTNERRVIVPADPTLWTQEAVRQWLEWAIKEYSLMEIDTSFFQNMDGKELCKMNKEDFLRATTLYNTEVLLSHLSYLRES [H22A]	-0.318 ± 0.15
NMTTNERRVIVPADPTLWTQEGVRQWLEWAIKEYSLMEIDTSFFQNMDGKELCKMNKEDFLRATTLYNTEVLLSHLSYLRES [H22G]	-0.106 ± 0.079
NMTTNERRVIVPADPTLWTQEMVRQWLEWAIKEYSLMEIDTSFFQNMDGKELCKMNKEDFLRATTLYNTEVLLSHLSYLRES [H22M]	0.028 ± 0.087
